Data on one molecule can be found in patent publication CN114933651A (dated 2022).

This assay concerns the target SARS-CoV-2RBD-hFc蛋白 (SARS-CoV-2; human).

B1: R14纳米抗体 (alpaca-derived nanobody R14, with C-terminal hexa-His tag) (VHH)
VHH: QVQLQESGGGLVQPGGSLRLSCAVSGFTLDYYAIGWFRQAPGKEREGVSCISSSDGSTSYADSVKGRFTISRDNAKNTVYLQMNSLKPEDTALYYCAATPATYYSGRYYYQCPAGGMDYWGQGTQVTVSS
In turn, B1 gave a Kd below 0.1 nM.
